Assay results as given in publication PMC2755957 (The Journal of Biological Chemistry, 2009).

B1: mouse Δ1–24-L-PGDS (lipocalin type prostaglandin D synthase) (Mus musculus; W54A) (protein)
chain: QGHDTVQPNFQQDKFLGRWYSAGLASNSSAFREKKAVLYMCKTVVAPSTEGGLNLTSTFLRKNQCETKIMVLQPAGAPGHYTYSSPHSGSIHSVSVVEANYDEYALLFSRGTKGPGQDFRMATLYSRTQTLKDELKEKFTTFSKAQGLTEEDIVFLPQPDKCIQE
B2: mouse Δ1–24-L-PGDS (lipocalin type prostaglandin D synthase) (Mus musculus; S45A) (protein)
chain: QGHDTVQPNFQQDKFLGRWYAAGLASNSSWFREKKAVLYMCKTVVAPSTEGGLNLTSTFLRKNQCETKIMVLQPAGAPGHYTYSSPHSGSIHSVSVVEANYDEYALLFSRGTKGPGQDFRMATLYSRTQTLKDELKEKFTTFSKAQGLTEEDIVFLPQPDKCIQE
B3: mouse Δ1–24-L-PGDS (lipocalin type prostaglandin D synthase) (Mus musculus; H111A) (protein)
chain: QGHDTVQPNFQQDKFLGRWYSAGLASNSSWFREKKAVLYMCKTVVAPSTEGGLNLTSTFLRKNQCETKIMVLQPAGAPGHYTYSSPASGSIHSVSVVEANYDEYALLFSRGTKGPGQDFRMATLYSRTQTLKDELKEKFTTFSKAQGLTEEDIVFLPQPDKCIQE
B4: mouse Δ1–24-L-PGDS (lipocalin type prostaglandin D synthase) (Mus musculus; H116A) (protein)
chain: QGHDTVQPNFQQDKFLGRWYSAGLASNSSWFREKKAVLYMCKTVVAPSTEGGLNLTSTFLRKNQCETKIMVLQPAGAPGHYTYSSPHSGSIASVSVVEANYDEYALLFSRGTKGPGQDFRMATLYSRTQTLKDELKEKFTTFSKAQGLTEEDIVFLPQPDKCIQE
B5: mouse Δ1–24-L-PGDS (lipocalin type prostaglandin D synthase) (Mus musculus; S81A) (protein)
chain: QGHDTVQPNFQQDKFLGRWYSAGLASNSSWFREKKAVLYMCKTVVAPSTEGGLNLTATFLRKNQCETKIMVLQPAGAPGHYTYSSPHSGSIHSVSVVEANYDEYALLFSRGTKGPGQDFRMATLYSRTQTLKDELKEKFTTFSKAQGLTEEDIVFLPQPDKCIQE
B6: mouse Δ1–24-L-PGDS (lipocalin type prostaglandin D synthase) (Mus musculus; T67A) (protein)
chain: QGHDTVQPNFQQDKFLGRWYSAGLASNSSWFREKKAVLYMCKAVVAPSTEGGLNLTSTFLRKNQCETKIMVLQPAGAPGHYTYSSPHSGSIHSVSVVEANYDEYALLFSRGTKGPGQDFRMATLYSRTQTLKDELKEKFTTFSKAQGLTEEDIVFLPQPDKCIQE
B7: mouse Δ1–24-L-PGDS (lipocalin type prostaglandin D synthase) (Mus musculus; S45A/S81A/T67A) (protein)
chain: QGHDTVQPNFQQDKFLGRWYAAGLASNSSWFREKKAVLYMCKAVVAPSTEGGLNLTATFLRKNQCETKIMVLQPAGAPGHYTYSSPHSGSIHSVSVVEANYDEYALLFSRGTKGPGQDFRMATLYSRTQTLKDELKEKFTTFSKAQGLTEEDIVFLPQPDKCIQE
B8: Δ^1–24-L-PGDS + P110A (Mus musculus; P110A) (protein)
chain: MAALRMLWMGLVLLGLLGFPQTPAQGHDTVQPNFQQDKFLGRWYSAGLASNSSWFREKKAVLYMCKTVVAPSTEGGLNLTSTFLRKNQCETKIMVLQPAGAPGHYTYSSAHSGSIHSVSVVEANYDEYALLFSRGTKGPGQDFRMATLYSRTQTLKDELKEKFTTFSKAQGLTEEDIVFLPQPDKCIQE
B9: Δ^1–24-L-PGDS + T67A/S81A (Mus musculus; S81A/T67A) (protein)
chain: MAALRMLWMGLVLLGLLGFPQTPAQGHDTVQPNFQQDKFLGRWYSAGLASNSSWFREKKAVLYMCKAVVAPSTEGGLNLTATFLRKNQCETKIMVLQPAGAPGHYTYSSPHSGSIHSVSVVEANYDEYALLFSRGTKGPGQDFRMATLYSRTQTLKDELKEKFTTFSKAQGLTEEDIVFLPQPDKCIQE
B10: Δ^1–24-L-PGDS + S45A/S81A (Mus musculus; S45A/S81A) (protein)
chain: MAALRMLWMGLVLLGLLGFPQTPAQGHDTVQPNFQQDKFLGRWYAAGLASNSSWFREKKAVLYMCKTVVAPSTEGGLNLTATFLRKNQCETKIMVLQPAGAPGHYTYSSPHSGSIHSVSVVEANYDEYALLFSRGTKGPGQDFRMATLYSRTQTLKDELKEKFTTFSKAQGLTEEDIVFLPQPDKCIQE
B11: Δ^1–24-L-PGDS + S45A/T67A (Mus musculus; S45A/T67A) (protein)
chain: MAALRMLWMGLVLLGLLGFPQTPAQGHDTVQPNFQQDKFLGRWYAAGLASNSSWFREKKAVLYMCKAVVAPSTEGGLNLTSTFLRKNQCETKIMVLQPAGAPGHYTYSSPHSGSIHSVSVVEANYDEYALLFSRGTKGPGQDFRMATLYSRTQTLKDELKEKFTTFSKAQGLTEEDIVFLPQPDKCIQE

Each molecule was assayed against T1, mouse Δ1–24-L-PGDS (lipocalin type prostaglandin D synthase) (Mus musculus, UniProt O09114, S45A/S81A/T67A) (assay: biochemical). Details: not given.
T1 sequence (O09114 25-189 S45A/T67A/S81A): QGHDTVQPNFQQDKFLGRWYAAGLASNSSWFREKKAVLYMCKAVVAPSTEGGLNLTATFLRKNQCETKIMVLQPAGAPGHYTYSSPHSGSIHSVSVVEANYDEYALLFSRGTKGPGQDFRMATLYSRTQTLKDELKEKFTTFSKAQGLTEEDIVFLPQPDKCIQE
CC1=C(/C=C/C(C)=C/C=C/C(C)=C/C(=O)O)C(C)(C)CCC1 [all-trans-retinoic acid] was tested, and the Kd was 418 ± 124 nM.

What follows are molecules tested on [H][C@]12C[C@]([H])(OO1)[C@H](C/C=C\CCCC(=O)O)[C@H]2/C=C/[C@@H](O)CCCCC (assay: purified protein, by the assay type). Details: pH 8.0; 25.0 °C.
Molecule B1 has a Km of 1.3 ± 0.5 µM and a Vmax of 3.6 µmol/min/mg. B2 was tested, and the Km was 0.5 ± 0.2 µM and the Vmax was 2.3 µmol/min/mg. B3 showed a Km of 1.4 ± 0.4 µM and a Vmax of 5.1 µmol/min/mg. In the case of B4, the Km is reported as 1.4 ± 0.1 µM and the Vmax is reported as 4.4 µmol/min/mg. In the case of B5, the Km is reported as 1.5 ± 0.4 µM and the Vmax is reported as 4.7 µmol/min/mg. Work on B6 yielded a Km of 2.8 ± 0.9 µM and a Vmax of 2.8 µmol/min/mg. B7 showed a Km of 1.2 ± 0.1 µM and a Vmax of 0.5 µmol/min/mg. B8 was tested, and the Km was 1.6 ± 0.5 µM and the Vmax was 4.8 µmol/min/mg. B9 gave a Km of 2.1 ± 0.2 µM and a Vmax of 1.3 µmol/min/mg. B10 gave a Km of 1.2 ± 0.3 µM and a Vmax of 1.5 µmol/min/mg. Molecule B11 has a Km of 2.1 ± 0.6 µM and a Vmax of 1.6 µmol/min/mg.
